Our source for the fold decline of affinity, concentration giving 50% inhibition and fold decrease of affinity against CVIM, from the concentration required for 50% inhibition values is patent US8003342.

The test addresses rat brain farnesyl:protein transferase (rat) (UniProt Q04631). The experiment in a line: cell-based or functional assay.

Some results are limits rather than exact numbers.

“CVIM with glutamic acid at the A2 position (peptide)” came in with a fold decline of affinity greater than 50 fold.
“CVIM with glutamic acid at the X position (peptide)”: the concentration giving 50% inhibition is greater than 40 µM.
In turn, “CVIM with glycine at the X position (peptide)” showed a concentration giving 50% inhibition greater than 40 µM.
As to “CVIM with lysine at the A2 position (peptide)”, the fold decline of affinity is greater than 50 fold and the fold decrease of affinity against CVIM, from the concentration required for 50% inhibition is greater than 30 fold.
“CVIM with lysine at the X position (peptide)” displayed a concentration giving 50% inhibition greater than 40 µM and a fold decrease of affinity against CVIM, from the concentration required for 50% inhibition greater than 30 fold.
